Test results reported in paper PMC7917804.

Target: poly(A)-binding protein (PABP), P11940
Assay: co-immunoprecipitation with anti-FLAG antibody, Western blot quantified with ImageJ
Details: chain shown with the change; HeLa cells; two independent experiments; parent: est. 1.0; read off a plot

Sequence of poly(A)-binding protein (PABP), P11940 (P11940 whole entry): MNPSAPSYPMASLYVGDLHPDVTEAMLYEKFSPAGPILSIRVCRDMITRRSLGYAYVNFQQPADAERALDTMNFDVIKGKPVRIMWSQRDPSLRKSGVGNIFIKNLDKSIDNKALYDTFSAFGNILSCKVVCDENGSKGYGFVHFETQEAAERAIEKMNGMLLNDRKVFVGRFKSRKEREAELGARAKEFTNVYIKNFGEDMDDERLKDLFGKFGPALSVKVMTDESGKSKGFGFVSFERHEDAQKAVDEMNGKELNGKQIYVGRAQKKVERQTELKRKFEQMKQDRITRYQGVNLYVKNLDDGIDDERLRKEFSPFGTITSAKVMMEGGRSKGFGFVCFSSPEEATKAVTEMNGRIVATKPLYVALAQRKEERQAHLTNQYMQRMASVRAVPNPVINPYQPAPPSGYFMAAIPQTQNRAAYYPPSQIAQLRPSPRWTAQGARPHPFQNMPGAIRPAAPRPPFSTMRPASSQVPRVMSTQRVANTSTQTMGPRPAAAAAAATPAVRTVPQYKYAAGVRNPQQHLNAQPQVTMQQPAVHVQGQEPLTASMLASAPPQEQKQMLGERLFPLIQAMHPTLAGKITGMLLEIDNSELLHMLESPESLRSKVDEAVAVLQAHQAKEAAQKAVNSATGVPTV

response: 1.4
B1: FLAG-HA-SBP (FHS)-tagged full-length TNRC6A, wild type, Q8NDV7-2 S1332D; S1346D (protein)
chain: MDADSASSSESERNITIMASGNTGGEKDGLRNSTGLGSQNKFVVGSSSNNVGHGSSTGPWGFSHGAIISTCQVSVDAPESKSESSNNRMNAWGTVSSSSNGGLNPSTLNSASNHGAWPVLENNGLALKGPVGSGSSGINIQCSTIGQMPNNQSINSKVSGGSTHGTWGSLQETCESEVSGTQKVSFSGQPQNITTEMTGPNNTTNFMTSSLPNSGSVQNNELPSSNTGAWRVSTMNHPQMQAPSGMNGTSLSHLSNGESKSGGSYGTTWGAYGSNYSGDKCSGPNGQANGDTVNATLMQPGVNGPMGTNFQVNTNKGGGVWESGAANSQSTSWGSGNGANSGGSRRGWGTPAQNTGTNLPSVEWNKLPSNQHSNDSANGNGKTFTNGWKSTEEEDQGSATSQTNEQSSVWAKTGGTVESDGSTESTGRLEEKGTGESQSRDRRKIDQHTLLQSIVNRTDLDPRVLSNSGWGQTPIKQNTAWDTETSPRGERKTDNGTEAWGSSATQTFNSGACIDKTSPNGNDTSSVSGWGDPKPALRWGDSKGSNCQGGWEDDSAATGMVKSNQWGNCKEEKAAWNDSQKNKQGWGDGQKSSQGWSVSASDNWGETSRNNHWGEANKKSSSGGSDSDRSVSGWNELGKTSSFTWGNNINPNNSSGWDESSKPTPSQGWGDPPKSNQSLGWGDSSKPVSSPDWNKQQDIVGSWGIPPATGKPPGTGWLGGPIPAPAKEEEPTGWEEPSPESIRRKMEIDDGTSAWGDPSKYNYKNVNMWNKNVPNGNSRSDQQAQVHQLLTPASAISNKEASSGSGWGEPWGEPSTPATTVDNGTSAWGKPIDSGPSWGEPIAAASSTSTWGSSSVGPQALSKSGPKSMQDGWCGDDMPLPGNRPTGWEEEEDVEIGMWNSNSSQELNSSLNWPPYTKKMSSKGLSGKKRRRERGMMKGGNKQEEAWINPFVKQFSNISFSRDSPEENVQSNKMDLSGGMLQDKRMEIDKHSLNIGDYNRTVGKGPGSRPQISKESSMERNPYFDKDGIVADESQNMQFMSSQSMKLPPSNSALPNQALGSIAGLGMQNLNSVRQNGNPSMFGVGNTAAQPRGMQQPPAQPLSSSQPNLRAQVPPPLLSPQVPVSLLKYAPNNGGLNPLFGPQQVAMLNQLSQLNQLSQISQLQRLLAQQQRAQSQRSVPSGNRPQQDQQGRPLSVQQQMMQQSRQLDPNLLVKQQTPPSQQQPLHQPAMKSFLDNVMPHTTPELQKGPSPINAFSNFPIGLNSNLNVNMDMNSIKEPQSRLRKWTTVDSISVNTSLDQNSSKHGAISSGFRLEESPFVPYDFMNSSTSPADPPGSIGDGWPRAKDPNGSSSVNWPPEFRPGEPWKGYPNIDPETDPYVTPGSVINNLSINTVREVDHLRDRNSGSSSSLNTTLPSTSAWSSIRASNYNVPLSSTAQSTSARNSDSKLTWSPGSVTNTSLAHELWKVPLPPKNITAPSRPPPGLTGQKPPLSTWDNSPLRIGGGWGNSDARYTPGSSWGESSSGRITNWLVLKNLTPQIDGSTLRTLCMQHGPLITFHLNLPHGNALVRYSSKEEVVKAQKSLHMCVLGNTTILAEFASEEEISRFFAQSQSLTPSPGWQSLGSSQSRLGSLDCSHSFSSRTDLNHWNGAGLSGTNCGDLHGTSLWGTPHYSTSLWGPPSSSDPRGISSPSPINAFLSVDHLGGGGESM
